Values of other authors as cited in article PMC11827629.

Test system: thrombin (as in cited literature)
Experiment: cited
Conditions: smFRET: 1x PBS with 2.5 mM PCA, 0.155 U/ul PCD, 1 mM Trolox, 5 nM Cy3-aptamer, 23 +/- 1 C, pH not stated; QCM: PBS, flow 45 +/- 3 ul/min, thrombin 0.06-16.5 nM
For HD1 (cited), the Kd is listed as 7.1 nM.
In the case of NU172 (cited), the Kd is given as 3.2 nM.
In the case of RE31 (cited), the Kd is given as 1.4 nM.
